From patent US20230256114A1, “NOVEL MAYTANSINOIDS AS ADC PAYLOADS AND THEIR USE FOR THE TREATMENT OF CANCER” (priority 2020, published 2023)

What was measured:
[1] = Size exclusion chromatography (SEC) of ADC monomer and aggregates; type: physicochemical; details: anti-Trop-2 ADC with the named payload, Cysteine conjugation
Experimental: Some embodiments of the invention relate to DM1s linked to antibodies via a non-cleavable linker. In this example, anti-Trop-2 antibody was reduced by adding antibody to TCEP (Tris (2-carboxyethyl) phosphine) dissolved in a pH-adjusted PBS EDTA buffer. The antibody/TCEP solution was incubated at 37° C. for 2-3 hrs. The reduced antibodies were buffer exchanged into conjugation reaction buffer. The BI-P203 payload dissolved in DMSO was added to a solution of reduced anti-Trop-2 monoclonal antibody at payload/antibody ratio of 7-30:1 in order to achieve different drug to antibody ratios (DARs). The payload/antibody solution was incubated for 1-2 hr at 20° C. while the reduced antibody was conjugated to BI-P203 payload via the maleimide group. After conjugation was completed, the reaction mixture was desalted and concentrated to yield anti-Trop-2-DM1 ADCs. The biochemical properties of the resulting ADCs were characterized using size-exclusion chromatography high pressure liquid chromatography (SEC-HPLC) to determine purity and aggregation content, and by using hydrophobic interaction chromatography HPLC (HIC-HPLC) to confirm drug loading (DAR). The conjugation procedure is illustrated in FIG. 12. The final ADC products are comprised of four or six or seven DM1-linker molecules. The cysteine conjugation method used in the conjugation process produces more homogenous ADCs compared to lysine conjugation method.

[2] = system: MDA-MB-468, SK-BR-3, Colo205, and A549 cells; assay: In vitro cytotoxicity assay of ADCs and free payloads (FIG. 20); type: cell-based; details: all tested cells
Experimental: Anti-Trop-2 ADCs were conjugated with different DM1 derivatives with similar DARs, and were tested ahead to ahead with anti-Trop-2-SMCC-DM1 and anti-Trop-2-vc-MMAE against BxPC-3 pancreatic cancer cells representing high Trop-2 expression, MDA-MB-468 breast cancer cells, N87 gastric cancer cells, and SK-BR-3 […] cancer cells representing moderate Trop-2 expression, Colo205 colon cancer cells representing low Trop-2 expression, and A549 lung cancer cells and MDA-MB-231 breast cancer cells with undetectable level of Trop-2. In vitro cytotoxicity assay was performed. Briefly, all cell lines were cultured in a suitable culture medium at 37° C. in a humidified incubator atmosphere of 5% CO2. Cells were plated in 96-well flat bottom plates. Cell seeding number ranged from 500 cells//100 ul/well to 6,000 cells/100 μl/well. Cells were allowed to adhere overnight at 37° C. in a humidified atmosphere of 5% CO2. ADCs were prepared from stock solution and diluted into appropriated working concentration 24 hours after cell seeding. […] Cell Counting Kit-8 solution (Dojindo China Co., Ltd, lot #PL701) was added to the wells for 1-4 hours at 37° C. and the absorbance at 450 nm was measured using a Microplate Reader (SpectraMax M5, Molecular Devices) and SoftMax Pro5.4.1 software. Dose-response curves were generated and IC50 was calculated using GraphPad Prism 7 three-parameter curve fitting. […]

[3] = target: T1, Trophoblast cell-surface antigen-2 (Trop-2) (human, UniProt P09758 27-323); assay: cell-based or functional assay
T1 sequence (looked up): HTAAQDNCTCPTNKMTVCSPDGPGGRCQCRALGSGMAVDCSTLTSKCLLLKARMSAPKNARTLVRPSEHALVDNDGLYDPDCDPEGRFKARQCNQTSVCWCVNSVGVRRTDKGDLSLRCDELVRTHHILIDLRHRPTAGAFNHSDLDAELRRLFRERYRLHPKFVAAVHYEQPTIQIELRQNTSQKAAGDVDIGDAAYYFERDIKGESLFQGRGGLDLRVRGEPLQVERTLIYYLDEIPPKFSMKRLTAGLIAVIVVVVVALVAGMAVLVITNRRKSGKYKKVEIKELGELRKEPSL

COc1cc2cc(c1Cl)N(C)C(=O)C[C@H](OC(=O)C1CCC(CNC(=O)CCOCCOCCOCCOCCNC(=O)CCN3C(=O)C=CC3=O)CC1)[C@@]1(C)O[C@H]1[C@H](C)[C@@H]1C[C@@](O)(NC(=O)O1)C(OC)/C=C/C=C(\C)C2 (stereo partly drawn) [BI-P208]
Aggregation rate (%) ([1]; DAR 3.0): 2.04% | Aggregation rate (%) ([1]; DAR 6.7): 9.46% | Aggregation rate (%) ([1]; DAR 7.3): 6.02%

COc1cc2cc(c1Cl)N(C)C(=O)C[C@H](OC(=O)[C@H](C)N(C)C(=O)COCCn1cc(COCCOCCOCCNC(=O)CCN3C(=O)C=CC3=O)nn1)C1(C)O[C@H]1[C@H](C)[C@@H]1C[C@@](O)(NC(=O)O1)C(OC)/C=C/C=C(\C)C2 (stereo partly drawn) [BI-P209]
Aggregation rate (%) ([1]; DAR 6.2): 4.96% | in vitro cytotoxic potency of the free payload compared with free BI-P203 [2]: slightly more potent than free BI-P203

COc1cc2cc(c1Cl)N(C)C(=O)C[C@H](OC(=O)[C@H](C)N(C)C(=O)CCCCCn1cc(COCCOCCOCCOCCNC(=O)CCN3C(=O)C=CC3=O)nn1)[C@@]1(C)O[C@H]1[C@H](C)[C@@H]1C[C@@](O)(NC(=O)O1)C(OC)/C=C/C=C(\C)C2 (stereo partly drawn) [BI-P204]
Aggregation rate (%) ([1]; DAR 2.8): 0.65%

COc1cc2cc(c1Cl)N(C)C(=O)C[C@H](OC(=O)C1CCN(C(=O)CCOCCOCCOCCOCCOCCOCCNC(=O)CCN3C(=O)C=CC3=O)CC1)[C@@]1(C)O[C@H]1[C@H](C)[C@@H]1C[C@@](O)(NC(=O)O1)C(OC)/C=C/C=C(\C)C2 (stereo partly drawn) [BI-P207]
Aggregation rate (%) ([1]; DAR 3.4): 1.02%

COc1cc2cc(c1Cl)N(C)C(=O)C[C@H](OC(=O)C1CCN(C(=O)CCOCCOCCOCCOCCNC(=O)CCN3C(=O)C=CC3=O)CC1)[C@@]1(C)O[C@H]1[C@H](C)[C@@H]1C[C@@](O)(NC(=O)O1)C(OC)/C=C/C=C(\C)C2 (stereo partly drawn) [BI-P206]
Aggregation rate (%) ([1]; DAR 3.6): 0.76%

B1: Anti-Trop-2-BI-P203 (antibody, V domains shown)
VH: SALMSRLTISKDTSKNQFSLKLSSVTAADTAVYYCARDENWDGAWFAYWGQGTLVTVSS
VL: DIVMTQSPDSLAVSLGERATINCKSSQSLLNSGTRKNYLAWYQQKPGQPPKLLISWASSRESGVPDRFSGSGSGTDFTLTISSLQAEDVAVYYCKQSYNLFTFGGGTKVEIKR
modifications: BI-P203 maytansinoid drug-linker on reduced cysteines via the maleimide group; positions not given; DAR 3.5, 5.1 or 7
IC50 (nM), in vitro cytotoxicity (CCK-8, 72 h), BxPC-3 cells (TROP2 +++), ADC at DAR 3.5 [3]: 0.48 nM | IC50 (nM), in vitro cytotoxicity (CCK-8, 72 h), BxPC-3 cells (TROP2 +++), ADC at DAR 7 [3]: 0.59 nM | IC50 (nM), in vitro cytotoxicity (CCK-8, 72 h), Colo205 cells (TROP2 +), ADC at DAR 7 [3]: 31.8 nM | IC50 (nM), in vitro cytotoxicity (CCK-8, 72 h), MDA-MB-468 cells (TROP2 ++), ADC at DAR 5.1 [3]: 1.2 nM | IC50 (nM), in vitro cytotoxicity (CCK-8, 72 h), MDA-MB-468 cells (TROP2 ++), ADC at DAR 7 [3]: 0.77 nM | IC50 (nM), in vitro cytotoxicity (CCK-8, 72 h), NCI-N87 cells (TROP2 ++/+), ADC at DAR 3.5 [3]: 8.93 nM | IC50 (nM), in vitro cytotoxicity (CCK-8, 72 h), NCI-N87 cells (TROP2 ++/+), ADC at DAR 7 [3]: 0.62 nM

B2: Anti-Trop-2-BI-P205 (antibody, V domains shown)
VH: SALMSRLTISKDTSKNQFSLKLSSVTAADTAVYYCARDENWDGAWFAYWGQGTLVTVSS
VL: DIVMTQSPDSLAVSLGERATINCKSSQSLLNSGTRKNYLAWYQQKPGQPPKLLISWASSRESGVPDRFSGSGSGTDFTLTISSLQAEDVAVYYCKQSYNLFTFGGGTKVEIKR
modifications: BI-P205 maytansinoid drug-linker on cysteines; positions not given; DAR 3.6, 4.9 or 7.1
IC50 (nM), in vitro cytotoxicity (CCK-8, 72 h), BxPC-3 cells (TROP2 +++), ADC at DAR 3.6 [3]: 0.43 nM | IC50 (nM), in vitro cytotoxicity (CCK-8, 72 h), BxPC-3 cells (TROP2 +++), ADC at DAR 7.1 [3]: 0.52 nM | IC50 (nM), in vitro cytotoxicity (CCK-8, 72 h), Colo205 cells (TROP2 +), ADC at DAR 7.1 [3]: 26.1 nM | IC50 (nM), in vitro cytotoxicity (CCK-8, 72 h), MDA-MB-468 cells (TROP2 ++), ADC at DAR 4.9 [3]: 1.58 nM | IC50 (nM), in vitro cytotoxicity (CCK-8, 72 h), MDA-MB-468 cells (TROP2 ++), ADC at DAR 7.1 [3]: 0.47 nM | IC50 (nM), in vitro cytotoxicity (CCK-8, 72 h), NCI-N87 cells (TROP2 ++/+), ADC at DAR 3.6 [3]: 0.282 nM
